Five substances from IntAct's records for PubMed 20489725 can be followed below.

Experiment [1] has as its target obscn_human OBSCN (UniProt Q5VST9).
Experiment [2] concerns the target obsl1_human OBSL1 (UniProt O75147).
For experiment [3] the target is unchanged. The source holds these as a separate data set.
For experiment [4] the target is unchanged. This is another data set of the same source.
For experiment [5], the target named is obscn_human OBSCN (UniProt Q5VST9). This is another data set of the same source.
In experiment [6] the target is obsl1_human OBSL1 (UniProt O75147). This is another data set of the same source.
Experiment [7] has as its target obscn_human OBSCN (UniProt Q5VST9). The source holds these as a separate data set.
Experiment [8] has the same target. This is another data set of the same source.

obsl1_human OBSL1, sequence (O75147 whole entry): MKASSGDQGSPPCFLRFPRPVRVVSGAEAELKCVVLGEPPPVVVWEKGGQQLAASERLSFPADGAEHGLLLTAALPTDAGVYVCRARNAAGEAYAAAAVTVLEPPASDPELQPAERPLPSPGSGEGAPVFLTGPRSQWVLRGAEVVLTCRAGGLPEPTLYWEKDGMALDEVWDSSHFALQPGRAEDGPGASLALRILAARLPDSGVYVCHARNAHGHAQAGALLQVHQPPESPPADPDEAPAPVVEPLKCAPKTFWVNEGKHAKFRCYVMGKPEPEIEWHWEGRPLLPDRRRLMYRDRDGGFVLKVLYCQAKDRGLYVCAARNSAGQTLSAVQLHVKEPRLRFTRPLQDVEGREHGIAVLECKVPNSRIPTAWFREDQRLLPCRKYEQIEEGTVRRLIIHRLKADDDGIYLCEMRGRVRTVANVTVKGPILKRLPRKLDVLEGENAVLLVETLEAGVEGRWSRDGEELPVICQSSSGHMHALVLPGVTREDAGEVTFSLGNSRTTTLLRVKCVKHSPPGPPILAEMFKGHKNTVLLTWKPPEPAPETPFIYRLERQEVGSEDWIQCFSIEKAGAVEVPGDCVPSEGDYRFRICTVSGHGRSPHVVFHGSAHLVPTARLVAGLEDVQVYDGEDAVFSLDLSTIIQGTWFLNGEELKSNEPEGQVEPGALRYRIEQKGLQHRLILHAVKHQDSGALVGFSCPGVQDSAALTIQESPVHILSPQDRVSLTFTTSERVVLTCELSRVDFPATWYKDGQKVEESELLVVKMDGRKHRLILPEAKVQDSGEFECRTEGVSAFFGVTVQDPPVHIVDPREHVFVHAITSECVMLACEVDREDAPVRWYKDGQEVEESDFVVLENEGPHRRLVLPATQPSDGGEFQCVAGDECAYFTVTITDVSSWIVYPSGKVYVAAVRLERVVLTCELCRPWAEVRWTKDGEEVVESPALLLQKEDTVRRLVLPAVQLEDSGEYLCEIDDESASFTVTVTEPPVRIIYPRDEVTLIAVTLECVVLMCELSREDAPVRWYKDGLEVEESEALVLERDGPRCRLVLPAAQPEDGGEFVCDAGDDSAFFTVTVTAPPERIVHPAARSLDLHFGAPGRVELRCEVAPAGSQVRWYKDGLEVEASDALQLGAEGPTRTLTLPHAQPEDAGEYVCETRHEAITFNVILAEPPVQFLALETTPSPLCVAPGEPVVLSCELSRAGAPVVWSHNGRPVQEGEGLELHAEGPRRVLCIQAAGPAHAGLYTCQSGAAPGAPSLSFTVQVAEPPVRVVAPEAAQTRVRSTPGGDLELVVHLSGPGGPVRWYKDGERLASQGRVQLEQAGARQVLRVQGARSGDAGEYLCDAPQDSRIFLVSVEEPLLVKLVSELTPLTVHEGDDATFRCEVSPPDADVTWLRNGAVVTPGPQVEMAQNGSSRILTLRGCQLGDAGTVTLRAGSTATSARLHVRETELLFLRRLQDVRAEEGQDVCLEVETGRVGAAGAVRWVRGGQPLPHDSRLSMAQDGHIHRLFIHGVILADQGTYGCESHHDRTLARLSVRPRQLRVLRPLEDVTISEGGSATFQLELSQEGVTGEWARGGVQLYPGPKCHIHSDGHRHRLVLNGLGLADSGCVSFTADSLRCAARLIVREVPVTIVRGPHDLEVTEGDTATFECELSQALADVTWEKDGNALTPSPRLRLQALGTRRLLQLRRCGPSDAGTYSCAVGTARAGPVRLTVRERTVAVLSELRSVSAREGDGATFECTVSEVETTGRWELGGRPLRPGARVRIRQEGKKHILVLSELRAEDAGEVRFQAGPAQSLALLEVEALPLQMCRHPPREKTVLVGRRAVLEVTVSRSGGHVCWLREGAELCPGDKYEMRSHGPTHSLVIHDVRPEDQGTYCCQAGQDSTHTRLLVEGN

Regarding Titin (Homo sapiens), Q8WZ42 I34306N, the “effect of a mutation on the interaction” value with obscn_human OBSCN [1] and in the experiment with obsl1_human OBSL1 [2] was “decreasing interaction” in each case.
On to Titin (Homo sapiens), Q8WZ42 D34311S, for which the “effect of a mutation on the interaction” value with obsl1_human OBSL1 [3] is listed as “decreasing interaction”.
Regarding Titin (Homo sapiens), Q8WZ42 H34305P, the “effect of a mutation on the interaction” value with obsl1_human OBSL1 [4] and with obscn_human OBSCN [5] was “decreasing interaction” each time.
Turning to Titin (Homo sapiens), Q8WZ42 R34348E, the “effect of a mutation on the interaction” value with obsl1_human OBSL1 [6] was “increasing interaction”; with obscn_human OBSCN [7], “decreasing interaction”.
For Titin (Homo sapiens), Q8WZ42 D34311R, in the experiment with obscn_human OBSCN [8], the “effect of a mutation on the interaction” value is “decreasing interaction”.
